Assay results reported in article PMC7145394, “Molecular and Low-Resolution Structural Characterization of the Na^+-Translocating Glutaconyl-CoA Decarboxylase From Clostridium symbiosum” (Frontiers in Microbiology, 2020).
Where “and” joins values, the source holds several entries; their conditions need not be identical. Equal values may be shown once.

B1: GcdA, subunit of glutaconyl-CoA decarboxylase (Gcd) from Clostridium symbiosum (enzyme, UniProt B7TVP1 1-588, looked up)
chain: MNMYSMPGYFQNMPTIGKELVNPNPENEQEIKAVESDIHESIKKALDAGITSEEKLNERGQLSAMQRINALIDPGTWCPLNSLFNPENNKFGTTNIVNGLGRVDGKWVYIVASDNKKMAGAWVPGQAENLIRCSDAAKMMHLPLIYLLNCSGVEFPNQDKVYPNRRGGGTPFFRNSELNQLGIPVIVGIYGTNPAGGGYHSISPTILIAHQDANMAVGGAGILSGMNPKGYIDDEAAEQIIAAQIENSKLKVPAPGSVPIHYDETGFFREVYQNDLGVIDGIKKYISYLPAYNLEFFRVDTPKAPQLPAEDLYSIIPMNQKRPYDIYEVIARLFDNSEFSEYKKGYGPEMVTGLAKVNGLLVGVIANVQGLLMNYPEYKQNSVGIGGKLYRQGLIKMNEFVTLCARDRIPLIWLQDTTGIDVGDEAEKAELLGLGQSLIYSIENSKLPSLEITIRKASAAAHYVLGGPQGNNTNVFSIGTGACEYYVMPGETAANAMYSRKLVKAKKAGEDLQPIIGKMNDMIQMYTDKSRPKYCTEKGMVDEIVDMTEVRPYIQAFTEAAYQNPQSICPMHQMLTPRSTREFETFGK
notes: GcdA, hydrophilic carboxyltransferase subunit of glutaconyl-CoA decarboxylase, Clostridium symbiosum, 65 kDa; For LILBID-MS (soft mode) and EM the complex was cross-linked with glutaraldehyde (GraFix)
B2: GcdC1, biotin carrier subunit of glutaconyl-CoA decarboxylase (Gcd) from Clostridium symbiosum (natural protein, UniProt B7TVP4 1-149, looked up)
chain: MKYIATINGKRYEVEVERVEGYKSLDRNGVAAPKAPALASTAPVQRPAAPAPAAPAPAAAPAPAAAPAPVAAPAPAAAGATTVEAPMPGKVLDVKVTAGQVVKYGDVVAIMEAMKMETEIVAPADGTVSQILVKAGDPVDTGAAMVVLN
modifications: biotin covalently bound (C-terminal region)
notes: GcdC1, biotin carrier subunit of glutaconyl-CoA decarboxylase, Clostridium symbiosum, 15 kDa; N-terminal region of 30 amino acids, AP region of 48, C-terminal region of 71; Surmised: its biotin is what the monomeric avidin column holds
B3: GcdC2, biotin carrier subunit of glutaconyl-CoA decarboxylase (Gcd) from Clostridium symbiosum (natural protein, UniProt B7TVP3 1-139, looked up)
chain: MKYTATLNGKQYDVELERIGEYEPIPRYGEAAPAPAAPITAPAAAPAPVAAAPAPAPAPAAPAPAPAAGGTTVEAPMPGKVLDVKVAAGQAVKFGQVVITMEAMKMETEIVAPADGTVAQILVKAGDAVETGTAMVVLN
modifications: biotin covalently bound (C-terminal region)
notes: GcdC2, biotin carrier subunit of glutaconyl-CoA decarboxylase, Clostridium symbiosum, 14 kDa; N-terminal region of 30 amino acids, AP region of 39, C-terminal region of 70; Surmised: its biotin is what the monomeric avidin column holds
B4: GcdB, subunit of glutaconyl-CoA decarboxylase (Gcd) from Clostridium symbiosum (enzyme, UniProt B7TVP5 1-379, looked up)
chain: MNFFEIMGEMLAQSGFTALTWKNLVMFAISFVLLYMAIKKQYEPLLLLPIAFGMFLANLPLADLMKESEPWYTQGVLRIMYGGVKSSLFPCLIFLCVGAMTDFGPLIANPISLLLGAAAQFGIYIAFMLANATGLFTVGEAAAIGIIGGADGPTAIYIANNLAPDLVAPIAVAAYSYMALIPMIQPPIMKLLTTKKERAIVMKQLRKVSKVEKVVFPVFVVLFCSLLLPSVAPLLGMLMLGNLFRESGVVERLSDTAQNALCNIVTIMLGTTVGATANGDIFLRVQTIAIIAMGLMAFCFSTVGGVLLGKLLCVVTGGKINPLIGSAGVSAVPMAARVSQTVGSKENPTNFLLMHAMGPNVAGVIGSAVAAGFFMLIFK
notes: GcdB, membrane-spanning subunit (11 putative transmembrane helices) of glutaconyl-CoA decarboxylase, Clostridium symbiosum, 35 kDa (39 kDa in the introduction)
B5: GcdD, small subunit of glutaconyl-CoA decarboxylase (Gcd) from Clostridium symbiosum (natural protein, UniProt B7TVP2 1-95, looked up)
chain: MWTEATMPFGQSVIVSLLGISVVFITLVTLALAIVLISKILRSIIKDGAQKPAPAAAPVVSDEADKETLAVLMATIGMDLELPADQFKIVNVKEL
notes: GcdD, small subunit of glutaconyl-CoA decarboxylase, Clostridium symbiosum, 10 kDa; N-terminal transmembrane helix (13-37), AP-rich region (51-60), C-terminal region (61-95)

Experiments:
[1] = target: T1, Gcd (glutaconyl-CoA decarboxylase) from Clostridium symbiosum ([Clostridium] symbiosum, UniProt B7TVP1); test: coupled spectrophotometric assay of crotonyl-CoA formation, […] nm; type: biochemical; details: decarboxylation to crotonyl-CoA; biotin-dependent, biotin covalently bound to GcdC1/GcdC2; DDM-solubilized enzyme
T1 construct: gene gcdA

[2] = target: the molecule itself; test: native MS; LILBID-MS, soft detection mode (14 mJ laser power); 3-7 uM glutaraldehyde-fixed and unconcentrated Gcd complex in 50 mM Tris-HCl pH 7.0, 0.05% DDM, 200 mM NaCl
[3] = target: the molecule itself; test: negative-stain electron microscopy, 3D reconstruction; glutaraldehyde-fixed Gcd (50-80 nM) at 200 mM NaCl, stained with 2% uranyl formate; 2D classification and low-resolution 3D map (cisTEM, RELION-3.0)
[4] = target: B1; test: affinity purification with mass spectrometry; Gcd solubilized from C. symbiosum membranes with 2% DDM in buffer A (50 mM phosphate pH 7.0, 400 mM NaCl, 0.05% DDM), loaded on monomeric avidin agarose, eluted with a biotin step gradient (0-2 mM); bands of SDS-PAGE identified by MALDI-TOF MS; details: partners not purified
[5] = target: B1; test: native MS; LILBID-MS, soft detection mode (14 mJ laser power); 3-7 uM glutaraldehyde-fixed and unconcentrated Gcd complex in 50 mM Tris-HCl pH 7.0, 0.05% DDM, 200 mM NaCl; details: both partners purified
[6] = target: B2; test: as above; details: both partners purified
[7] = target: B3; test: as above; details: both partners purified
[8] = target: B2; test: affinity purification with mass spectrometry; Gcd solubilized from C. symbiosum membranes with 2% DDM in buffer A (50 mM phosphate pH 7.0, 400 mM NaCl, 0.05% DDM), loaded on monomeric avidin agarose, eluted with a biotin step gradient (0-2 mM); bands of SDS-PAGE identified by MALDI-TOF MS; details: partners not purified

`CC(C)(COP(=O)(O)OP(=O)(O)OC[C@H]1O[C@@H](n2cnc3c(N)ncnc32)[C@H](O)[C@@H]1OP(=O)(O)O)[C@@H](O)C(=O)NCCC(=O)NCCSC(=O)/C=C/CC(=O)O` [glutaconyl-CoA] was tested, and the “coupled spectrophotometric assay of crotonyl-CoA formation, 340 nm” value [1] was “Purified Gcd was enzymatically active with respect to crotonyl-CoA formation”.

In the case of B1, the “stoichiometry N” value [2] is reported as 4 and 2 and the “stoichiometry N” value [3] is reported as ~4.

B2: binds [4].

B3: binds [5]; binds [6].

In the case of B4, the “stoichiometry N” value [3] is reported as 2.

B5: binds [7]; binds [8].
